Target: human Fc fusion angiotensin-converting enzyme 2 (hACE2-Fc) (human) (UniProt Q9BYF1)
Assay: BLI

Chain of human Fc fusion angiotensin-converting enzyme 2 (hACE2-Fc) (human) (Q9BYF1 18-740): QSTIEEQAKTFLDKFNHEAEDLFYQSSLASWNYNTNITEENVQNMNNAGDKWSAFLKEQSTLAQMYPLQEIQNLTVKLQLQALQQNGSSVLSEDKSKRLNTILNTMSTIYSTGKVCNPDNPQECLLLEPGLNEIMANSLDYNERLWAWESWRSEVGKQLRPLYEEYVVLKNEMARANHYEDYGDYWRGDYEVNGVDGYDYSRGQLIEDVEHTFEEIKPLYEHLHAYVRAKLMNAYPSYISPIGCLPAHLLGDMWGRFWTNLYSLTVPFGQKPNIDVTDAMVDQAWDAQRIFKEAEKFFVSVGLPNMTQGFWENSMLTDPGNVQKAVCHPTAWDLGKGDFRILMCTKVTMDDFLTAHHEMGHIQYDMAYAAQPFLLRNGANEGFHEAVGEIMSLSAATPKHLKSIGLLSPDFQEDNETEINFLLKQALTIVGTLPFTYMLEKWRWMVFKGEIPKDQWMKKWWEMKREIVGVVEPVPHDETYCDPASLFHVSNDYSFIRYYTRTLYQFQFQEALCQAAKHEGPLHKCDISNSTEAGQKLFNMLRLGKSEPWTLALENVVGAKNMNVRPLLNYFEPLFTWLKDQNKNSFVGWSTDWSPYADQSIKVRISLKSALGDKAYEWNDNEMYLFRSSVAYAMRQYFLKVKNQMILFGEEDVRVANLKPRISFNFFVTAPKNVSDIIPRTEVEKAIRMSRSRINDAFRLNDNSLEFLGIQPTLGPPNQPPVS

spike RBD of SARS-CoV-2 Omicron expressed in a mammalian system (domain or fragment)
Kd: 7.16 nM | koff: 0.00161 s⁻¹ | kon: 226000 M⁻¹ s⁻¹

MBP-fused spike receptor binding domain of SARS-CoV-2 Omicron BA.1 (MBP-RBDomi) (domain or fragment)
Kd: 10.1 nM | koff: 0.00174 s⁻¹ | kon: 172000 M⁻¹ s⁻¹

Reference: publication PMC9687980
